The text below walks through data of paper doi:10.1101/2025.06.24.661325.

The target of the assay is M. tuberculosis MmpL5 Δ494-688 with C-terminal GFP-FLAG tag (M. tuberculosis) (UniProt P9WJV1). As to the kind of experiment: cryo-EM structure.

Turning to “M. tuberculosis MmpL5 Δ494-688 with C-terminal GFP-FLAG tag (from UniProt P9WJV1 1-964) (natural protein)”, the stoichiometry N was 3.
